The values that follow come from US20240116985A1 (published 2024).

Starred links: 1 amine or outer side, 2 acyl side, 3 side chain; linkers in the order of their positions; H or OH if unused. Positions of bridges follow the written chain, without caps; N, C: chain ends. Non-standard residues stand in square brackets, D forms with d. Primed or numbered codes have the meaning given here. *: point of attachment. PyrS2(3) = (S)-3-amino-1-((pent-4-en-1-yloxy)carbonyl)pyrrolidine-3-carboxylic acid, stapling residue, C=CCCCOC(=O)N1CC[C@@](N[*:1])(C(=O)[*:2])C1; B5(18) = 2,2-bis(4-pentenyl)glycine (2-amino-2-(pent-4-en-1-yl)hept-6-enoic acid), stitching residue, C=CCCCC(CCCC=C)(N[*:1])C(=O)[*:2]; TfeGA = (S)-2-amino-3-((carboxymethyl)(2,2,2-trifluoroethyl)amino)propanoic acid, O=C([C@H](CN(CC(=O)[*:3])CC(F)(F)F)N[*:1])[*:2]; PyrS2 = (S)-3-amino-1-((pent-4-en-1-yloxy)carbonyl)pyrrolidine-3-carboxylic acid, C=CCCCOC(=O)N1CC[C@@](N[*:1])(C(=O)[*:2])C1; 2COOH4NO2Ph = 2-carboxy-4-nitrophenyl group on the side chain (attached at Dap N or Cys S), O=C(O)c1cc([N+](=O)[O-])ccc1*; B5(12) = 2-amino-2-(pent-4-en-1-yl)hept-6-enoic acid (two olefin side chains), C=CCCCC(CCCC=C)(N[*:1])C(=O)[*:2]; 2COOHF = (S)-2-(2-amino-2-carboxyethyl)benzoic acid, O=C([C@H](Cc1ccccc1C(=O)[*:3])N[*:1])[*:2]; GAbu = (S)-2-amino-4-((carboxymethyl)amino)butanoic acid, O=C([C@H](CCNCC(=O)[*:3])N[*:1])[*:2]; TriAzDap = Dap whose side chain is a 1H-1,2,3-triazol-1-yl bearing the bracketed 4-substituent; B5(3) = 2,2-bis(4-pentenyl)glycine (stitching residue), C=CCCCC(CCCC=C)(N[*:1])C(=O)[*:2]; Phe(3-COOH) = N[C@@H](Cc1cccc(C(=O)O)c1)C(=O)O; Phe(4-COOH) = N[C@@H](Cc1ccc(C(=O)O)cc1)C(=O)O; Phe(2-Cl) = N[C@@H](Cc1ccccc1Cl)C(=O)O; Bta = N[C@@H](Cc1csc2ccccc12)C(=O)O; αAllylPro = C=CC[C@@]1(C(=O)O)CCCN1; tBuAla = CC(C)(C)C[C@H](N)C(=O)O; 3Thi = N[C@@H](Cc1ccsc1)C(=O)O; PyrS2(4) = not defined here; TfeGA″ = not defined here; 2Nic = not defined here; Dap = NC[C@H](N)C(=O)O

To fix the notation:
T1: B-cat-Halo (beta-catenin HaloTag construct expressed in HEK293 cells) (UniProt P35222 1-781)
T1 sequence (looked up): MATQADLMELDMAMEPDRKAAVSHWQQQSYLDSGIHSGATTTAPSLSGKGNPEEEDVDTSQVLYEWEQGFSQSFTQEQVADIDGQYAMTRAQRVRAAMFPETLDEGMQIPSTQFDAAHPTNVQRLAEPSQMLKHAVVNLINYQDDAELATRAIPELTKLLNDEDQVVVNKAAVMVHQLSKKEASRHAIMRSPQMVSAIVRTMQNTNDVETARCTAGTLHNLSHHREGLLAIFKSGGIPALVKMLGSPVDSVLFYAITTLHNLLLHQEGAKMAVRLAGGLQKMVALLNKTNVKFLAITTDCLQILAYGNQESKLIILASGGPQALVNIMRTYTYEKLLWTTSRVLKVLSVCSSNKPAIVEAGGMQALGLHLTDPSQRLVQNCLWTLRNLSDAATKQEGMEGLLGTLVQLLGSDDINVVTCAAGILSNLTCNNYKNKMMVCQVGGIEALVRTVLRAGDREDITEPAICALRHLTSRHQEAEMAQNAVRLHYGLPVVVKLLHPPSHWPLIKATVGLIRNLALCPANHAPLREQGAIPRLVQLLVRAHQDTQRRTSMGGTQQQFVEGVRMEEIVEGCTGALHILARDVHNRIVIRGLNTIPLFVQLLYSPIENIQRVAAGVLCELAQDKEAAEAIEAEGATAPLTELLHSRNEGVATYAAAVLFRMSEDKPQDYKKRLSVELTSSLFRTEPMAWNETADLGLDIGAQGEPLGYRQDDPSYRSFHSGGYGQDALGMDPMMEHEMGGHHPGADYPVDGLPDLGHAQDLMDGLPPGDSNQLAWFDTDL

T2: B-cat-Halo (UniProt P35222 1-781)
T2 sequence (looked up): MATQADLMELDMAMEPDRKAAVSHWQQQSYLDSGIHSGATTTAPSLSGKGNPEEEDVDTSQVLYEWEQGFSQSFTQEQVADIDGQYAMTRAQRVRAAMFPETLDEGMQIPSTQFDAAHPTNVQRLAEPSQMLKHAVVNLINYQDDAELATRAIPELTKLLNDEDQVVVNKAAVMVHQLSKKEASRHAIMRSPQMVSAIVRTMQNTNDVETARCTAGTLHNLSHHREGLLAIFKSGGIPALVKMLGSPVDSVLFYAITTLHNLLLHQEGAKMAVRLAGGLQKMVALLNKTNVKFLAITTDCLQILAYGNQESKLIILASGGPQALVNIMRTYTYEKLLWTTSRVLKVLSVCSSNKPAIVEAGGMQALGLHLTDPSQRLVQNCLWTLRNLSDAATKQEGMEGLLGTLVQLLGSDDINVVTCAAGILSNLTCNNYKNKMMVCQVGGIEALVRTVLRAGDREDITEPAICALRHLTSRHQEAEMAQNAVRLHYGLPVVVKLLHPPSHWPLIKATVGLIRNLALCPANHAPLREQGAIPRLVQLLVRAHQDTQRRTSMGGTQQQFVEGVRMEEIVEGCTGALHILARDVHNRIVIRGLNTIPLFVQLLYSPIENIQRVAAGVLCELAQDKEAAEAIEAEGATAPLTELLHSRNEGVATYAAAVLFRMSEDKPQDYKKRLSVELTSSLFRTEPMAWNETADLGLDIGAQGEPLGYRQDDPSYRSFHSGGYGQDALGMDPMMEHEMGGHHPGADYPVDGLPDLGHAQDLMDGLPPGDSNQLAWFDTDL

In the first test the target is T1, B-cat-Halo (beta-catenin HaloTag …). In words: cell-based or functional assay.
Consider Ac-[αAllylPro]D[tBuAla][B5(18)]D[Dap](2Nic)AAFL[PyrS2(3)][3Thi][Bta]Q-NH2 (staple 1-4, 4-11; reading uncertain) [I-1845], for which the “NanoBRET Abs IC50” value came to 6.3 µM.
On the same count and under the same terms, the value for Ac-[αAllylPro]D[tBuAla][B5(18)]D[Phe(3-COOH)]AAFA[PyrS2(3)][Phe(2-Cl)][Bta]S-NH2 (staple 1-4, 4-11) [I-1849] was 8.8 µM.
With Ac-[αAllylPro]D[tBuAla][B5(18)]D[GAbu]AAFL[PyrS2(3)][3Thi][Bta]Q-NH2 (staple 1-4, 4-11) [I-1841], the “NanoBRET Abs IC50” value is above 20 µM.
In the case of Ac-[αAllylPro]D[tBuAla][B5(18)]D[Dap](2COOH4NO2Ph)AAFL[PyrS2(3)][3Thi][Bta]Q-NH2 (staple 1-4, 4-11) [I-1843], the “NanoBRET Abs IC50” value is 9.5 µM.
Take Ac-[αAllylPro]D[tBuAla][B5(18)]D[TfeGA]AAF[TriAzDap](CH2NMe2)[PyrS2(3)][3Thi][Bta]Q-NH2 (staple 1-4, 4-11; not fully specified) [I-1862]: the “NanoBRET Abs IC50” value came out at 19.3 µM.
As to Ac-[αAllylPro]D[tBuAla][B5(18)]D[GAbu](Ac)AAFL[PyrS2(3)][3Thi][Bta]Q-NH2 (staple 1-4, 4-11; also: double bonds not converted) [I-1840], the “NanoBRET Abs IC50” value stood at 22.3 µM.

For another test, the target named is T2, B-cat-Halo. In words: cell-based or functional assay.
Take Ac-[αAllylPro]D[tBuAla][B5(3)]D[Phe(4-COOH)]AAFF[PyrS2][3Thi][Bta]Q-NH2 (staple 1-4, 4-11) [I-850]: the “NanoBRET Abs IC50” value was determined as 16.4 µM.
Same read-out and setting: next, Ac-[αAllylPro]D[tBuAla][B5(12)]D[2COOHF]AAFL[PyrS2][3Thi][Bta]Q-NH2 (staple 1-4, 4-11) [I-854]: 3.6 µM; Ac-[αAllylPro]D[tBuAla][B5(3)]DLAAFN[PyrS2(4)][3Thi][Bta]H-NH2 (staple 1-4, 4-11; reading uncertain) [I-847]: above 20 µM.
With Ac-[αAllylPro]D[tBuAla][B5(3)]D[Phe(4-COOH)]AAFL[PyrS2][3Thi][Bta]Q-NH2 (staple 1-4, 4-11) [I-851], the “NanoBRET Abs IC50” value is 7.6 µM.
For the molecule Ac-[αAllylPro]D[tBuAla][B5(3)]D[Phe(3-COOH)]AAFF[PyrS2][3Thi][Bta]Q-NH2 (staple 1-4, 4-11) [I-852], the “NanoBRET Abs IC50” value amounted to 2.8 µM.
Turning to Ac-[αAllylPro]D[tBuAla][B5(12)]DNAAFL[PyrS2][3Thi][Bta]Q-NH2 (staple 1-4, 4-11) [I-856], the “NanoBRET Abs IC50” value is 6.8 µM.
Same read-out and setting: next, Ac-[αAllylPro]D[tBuAla][B5(3)]D[TfeGA]AAFL[PyrS2][3Thi][Bta]Q-NH2 (staple 1-4, 4-11) [I-849]: 3.6 µM.
In the case of Ac-[αAllylPro]D[tBuAla][B5(3)]D[TfeGA″]AAFF[PyrS2(4)][3Thi][Bta]Q-NH2 (staple 1-4, 4-11; reading uncertain) [I-848], the “NanoBRET Abs IC50” value worked out at 7 µM.
